Positions count from the first letter of the chain named. Like-named read-outs stand apart in the source and are kept apart here. One block for each binder: values may come before it. Ends that are not written are not given here.
Tests used:
Human CXCR2 [1] = biological target: T1, Human CXCR2 (human, UniProt P25025 1-360); assay: cell-based or functional assay
T1 sequence: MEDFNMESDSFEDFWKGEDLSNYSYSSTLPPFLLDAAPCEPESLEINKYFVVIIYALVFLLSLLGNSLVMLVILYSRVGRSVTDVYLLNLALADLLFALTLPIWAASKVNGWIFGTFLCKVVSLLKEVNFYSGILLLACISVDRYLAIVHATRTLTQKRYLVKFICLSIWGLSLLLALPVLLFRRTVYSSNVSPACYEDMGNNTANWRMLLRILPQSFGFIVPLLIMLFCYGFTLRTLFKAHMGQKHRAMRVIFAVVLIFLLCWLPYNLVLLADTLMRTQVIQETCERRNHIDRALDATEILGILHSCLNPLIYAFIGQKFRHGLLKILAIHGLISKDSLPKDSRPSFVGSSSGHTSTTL

Cynomolgus CXCR2 [2] = biological target: T2, Cynomolgus CXCR2 (cynomolgus, UniProt Q28519 3-353 (rhesus entry)); assay: cell-based or functional assay
T2 chain: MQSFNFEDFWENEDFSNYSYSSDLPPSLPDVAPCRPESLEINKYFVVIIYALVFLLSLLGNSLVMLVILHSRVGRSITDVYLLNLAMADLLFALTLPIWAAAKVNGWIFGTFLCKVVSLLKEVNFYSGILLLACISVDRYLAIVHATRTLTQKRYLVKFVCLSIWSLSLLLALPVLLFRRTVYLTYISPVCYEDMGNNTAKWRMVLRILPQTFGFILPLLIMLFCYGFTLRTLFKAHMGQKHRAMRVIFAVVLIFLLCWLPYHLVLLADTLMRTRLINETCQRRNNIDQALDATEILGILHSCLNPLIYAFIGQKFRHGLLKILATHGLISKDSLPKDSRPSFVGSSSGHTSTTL

Human CXCR2 [3] = biological target: T1, Human CXCR2; assay: cell-based or functional assay; remark: listed apart in the source
Cynomolgus CXCR2 [4] = biological target: T2, Cynomolgus CXCR2; assay: cell-based or functional assay
Human CXCR2 [5] = biological target: T1, Human CXCR2; assay: FACS hGro-α competition
Cynomolgus CXCR2 [6] = biological target: T2, Cynomolgus CXCR2; assay: FACS hGro-α competition
Human CXCR2 [7] = biological target: T1, Human CXCR2; assay: cell-based or functional assay; remark: listed apart in the source
Cynomolgus CXCR2 [8] = biological target: T2, Cynomolgus CXCR2; assay: cell-based or functional assay
Human CXCR2 [9] = biological target: T1, Human CXCR2; assay: FACS, periplasmic extract vs FMAT Blue Gro-α
Method: Periplasmic extracts (as described above) were analyzed on FACS for competition with Gro-α in binding to human CXCR2. 2×10⁵ cells were incubated with a ½ dilution of periplasmic extracts in FACS buffer (PBS+10% fetal bovine serum (Sigma, F7524)) for 30 minutes at 4° C. Then, an equal volume of 6 nM of FMAT Blue-labeled human Gro-α in FACS buffer was added and incubation was continued for another 30 minutes at 4° C. in the dark. Cells were then washed three times in FACS buffer and finally resuspended in FACS buffer. Dead cells were stained with propidium iodide (Sigma, P4170). Samples were then analyzed on a FACSarray (BD Biosciences).

Human 1to19 peptide = biological target: T3, Human 1to19 peptide (human); assay: ELISA, periplasmic extract on biotinylated peptide
T3 construct: First 19 N-terminal amino acids of human CXCR2, captured on neutravidin; also called human CXCR2 1 to19 peptide; 1-19 Nter peptide
T3 peptide: MEDFNMESDSFEDFWKGED-biotin
Method: In another setup, periplasmic extracts were analyzed for binding to human 1 to 19 peptide by ELISA. MaxiSorb plates (Nunc, 430341) were coated for two hours with neutravidin followed by one hour blocking (PBS, 1% casein). Then 100 nM biotinylated human 1 to 19 peptide was added to these plates for one hour (PBS, 0.1% casein, 0.05% tween20) followed by one hour incubation with 10-fold dilutions of periplasmic extracts. Unbound periplasmic extracts were washed away (PBS supplemented with 0.05% tween20) and bound Nanobodies were detected using mouse anti-myc (Roche, 11667149001) followed by rabbit anti-mouse-HRP conjugate (Dakocytomation, P0260). Table 8 summarizes the ratios of the binding signals of anti-CXCR2Nanobodies over an irrelevant control Nanobody.

Human CXCR2 [10] = biological target: T1, Human CXCR2; assay: FACS competition vs 3 nM FMAT-Blue Gro-α
Method: (§1) Purified monovalent anti-CXCR2Nanobodies were titrated against 3 nM FMAT-Blue-labeled Gro-α in the FACS ligand competition assay on human and cynomolgus CXCR2 (Table 10). On human CXCR2, blocking potencies range between double digit nM and sub-nM whereas on cynomolgus CXCR2, they range between single and double digit nM.

Cynomolgus CXCR2 [11] = biological target: T2, Cynomolgus CXCR2; assay: FACS competition vs 3 nM FMAT-Blue Gro-α
Method: as §1

Human CXCR2 [12] = biological target: T1, Human CXCR2; assay: cell-based or functional assay; remark: listed apart in the source
Human CXCR2 [13] = biological target: T1, Human CXCR2; assay: cell-based or functional assay; remark: listed apart in the source
Cynomolgus CXCR2 [14] = biological target: T2, Cynomolgus CXCR2; assay: cell-based or functional assay
Human CXCR2 [15] = biological target: T1, Human CXCR2; assay: cell-based or functional assay; remark: listed apart in the source
Human CXCR2 [16] = biological target: T1, Human CXCR2; assay: FACS competition vs 3 nM FMAT-Blue Gro-α; remark: listed apart in the source
Method: as §1, with “Multivalent” for “Purified monovalent”, “14).” for “10).”

Cynomolgus CXCR2 [17] = biological target: T2, Cynomolgus CXCR2; assay: FACS competition vs 3 nM FMAT-Blue Gro-α
Method: as §1, with “Multivalent” for “Purified monovalent”, “14).” for “10).”

Human CXCR2 [18] = biological target: T1, Human CXCR2; assay: cell-based or functional assay; remark: listed apart in the source
Cynomolgus CXCR2 [19] = biological target: T2, Cynomolgus CXCR2; assay: cell-based or functional assay

- FLIPR hGro-α IC50 (Human CXCR2 [1]): 650 nM
- FLIPR hGro-α IC50 (Cynomolgus CXCR2 [2]): 24000 nM
- FLIPR % inhibition max (Human CXCR2 [3]): 100%
- FLIPR IC50 (GRO-α induced calcium release) (Human CXCR2 [3]): 441 nM
- [35S]GTPγS % inhibition max (GRO-α) (Human CXCR2 [3]): 71.3%
- [35S]GTPγS IC50 (GRO-α) (Human CXCR2 [3]): 103 nM
- FLIPR % inhibition max (Cynomolgus CXCR2 [4]): 100%
- FLIPR IC50 (GRO-α induced calcium release) (Cynomolgus CXCR2 [4]): 3850 nM
- IC50 (Human CXCR2 [5]): 1.3 nM
- IC50 (Cynomolgus CXCR2 [6]): 35 nM
- Human Chemotaxis IC50 (GROα) (Human CXCR2 [7]): 212 nM
- Human WBSC IC50 (rhGROα) (Human CXCR2 [7]): 29.5 nM
- Cynomologus WBSC IC50 (rhGROα) (Cynomolgus CXCR2 [8]): > 100 nM
- FACS Gro-α competition (% inhibition) (Human CXCR2 [9]): 38.1%
- ratio of binding signal relative to blank control (Human 1to19 peptide): 58.6 ratio
- % inhibition of max (Human CXCR2 [10]): 42.7%
- IC50 (Human CXCR2 [10]): 2.07 nM
- % inhibition of max (Cynomolgus CXCR2 [11]): 64%
- IC50 (Cynomolgus CXCR2 [11]): 31.6 nM
B1: 2B2 (VHH)
VHH: EVQLVESGGELVQPGGSLRLSCAASGSILTINAMGWYRQAPGKQRELVVRRTRGGSTTYQDSVKGRFTISADIAKKTMYLQMNSLKPEDTAVYYCMLDDRGGVYWGQGTQVTVSS
notes: Tested as periplasmic extract (pAX50) and as purified His6-tagged protein (pAX100); also called 002B02; not shown: C-terminal c-myc tag and His6 tag coded by the vector

- FLIPR hGro-α IC50 (Human CXCR2 [1]): 6100 nM
- FLIPR hGro-α IC50 (Cynomolgus CXCR2 [2]): 24000 nM
- IC50 (Cynomolgus CXCR2 [6]): 54 nM
B2: CXCR20063 (VHH)
VHH: B1 VHH with V5L, E10G, A74S, K76N, K86R, M96L, Q110L

- [35S]GTPγS % inhibition of max (GRO-α) (Human CXCR2 [12]): 100%
- [35S]GTPγS IC50 (GRO-α) (Human CXCR2 [12]): 0.809 nM
- Human Chemotaxis IC50 (rhGROα) (Human CXCR2 [13]): 0.14 nM
- Human WBSC IC50 (rhGROα) (Human CXCR2 [13]): 0.165 nM
- Cynomologus WBSC IC50 (rhGROα) (Cynomolgus CXCR2 [14]): 0.26 nM
- IC50 (M) at 5 nM GROα (inhibition of GRO-α, FIG. 2) (Human CXCR2 [15]): 6.53e-10 M
- IC50 (M) at 15 nM GROα (inhibition of GRO-α, FIG. 2) (Human CXCR2 [15]): 1.98e-09 M
- IC50 (M) at 150 nM GROα (inhibition of GRO-α, FIG. 2) (Human CXCR2 [15]): 6.71e-08 M
- % inhibition of max (Human CXCR2 [16]): 99.5%
- IC50 (Human CXCR2 [16]): 0.9 nM
- % inhibition of max (Cynomolgus CXCR2 [17]): 99%
- IC50 (Cynomolgus CXCR2 [17]): 1.82 nM
- FLIPR % inhibition of max (Human CXCR2 [18]): 100%
- FLIPR IC50 (GRO-α induced calcium release) (Human CXCR2 [18]): 12.3 nM
- FLIPR % inhibition of max (Cynomolgus CXCR2 [19]): 100%
- FLIPR IC50 (GRO-α induced calcium release) (Cynomolgus CXCR2 [19]): 9.1 nM
B3: CXCR20026 (bispecific antibody)
chain: EVQLVESGGGLVQPGGSLRLSCVASGRIFSSNAMGWFRQAPGKEREFVAAITWRSGGSAYYADSAKGRFTISRDNAKNTVYLQMNSLKPEDTAVYYCAAGGSSWLSFPPDYWGQGTQVTVSSGGGGSGGGGSGGGGSGGGGSGGGGSGGGGSGGGGSEVQLVESGGGLVQAGESLRLSCAASGSTFDFKVMGWYRQPPGKQREGVAAIRLSGNMHYAESVKGRFTISKANAKNTVYLQMNSLRPEDTAVYYCKVNIRGQDYWGQGTQVTVSS
notes: Biparatopic: two VHH joined by a GlySer linker; also called 163E3-35GS-127D1; 163E3-127D1; not shown: C-terminal c-myc tag and His6 tag coded by pAX100

- [35S]GTPγS % inhibition of max (ENA-78) (Human CXCR2 [12]): 100%
- [35S]GTPγS % inhibition of max (GRO-α) (Human CXCR2 [12]): 100%
- [35S]GTPγS % inhibition of max (IL-8) (Human CXCR2 [12]): 100%
- [35S]GTPγS IC50 (ENA-78) (Human CXCR2 [12]): 1.66 nM
- [35S]GTPγS IC50 (GRO-α) (Human CXCR2 [12]): 1.38 nM
- [35S]GTPγS IC50 (IL-8) (Human CXCR2 [12]): 1.13 nM
- Human Chemotaxis IC50 (rhGROα) (Human CXCR2 [13]): 0.16 nM
- Human WBSC IC50 (rhGROα) (Human CXCR2 [13]): 0.445 nM
- Cynomologus WBSC IC50 (rhGROα) (Cynomolgus CXCR2 [14]): 0.16 nM
- % inhibition of max (Human CXCR2 [16]): 99.7%
- IC50 (Human CXCR2 [16]): 1.59 nM
- % inhibition of max (Cynomolgus CXCR2 [17]): 98.5%
- IC50 (Cynomolgus CXCR2 [17]): 3.9 nM
- FLIPR % inhibition of max (Human CXCR2 [18]): 100%
- FLIPR IC50 (GRO-α induced calcium release) (Human CXCR2 [18]): 6.84 nM
- FLIPR % inhibition of max (Cynomolgus CXCR2 [19]): 100%
- FLIPR IC50 (GRO-α induced calcium release) (Cynomolgus CXCR2 [19]): 13.7 nM
B4: CXCR20014 (bispecific antibody)
chain: EVQLVESGGGLVQPGGSLRLSCVASGSIVRINTMGWYRQTPGKQRELVADITSGGNINYIDAVKGRFTISRDNTKNTVYLQMNSLKPEDTAVYYCNAEIVVLVGVWTQRARTGNYWGQGTQVTVSSGGGGSGGGGSGGGGSGGGGSGGGGSGGGGSGGGGSEVQLVESGGELVQPGGSLRLSCAASGSILTINAMGWYRQAPGKQRELVVRRTRGGSTTYQDSVKGRFTISADIAKKTMYLQMNSLKPEDTAVYYCMLDDRGGVYWGQGTQVTVSS
notes: Biparatopic: two VHH joined by a GlySer linker; also called 97A9-35GS-2B2; 97A9-2B2; not shown: C-terminal c-myc tag and His6 tag coded by pAX100

Reference: patent publication US20130330346A1 (Novartis, published 2013)
